In patent publication US20230235080A1, “TROPHOBLAST CELL-SURFACE ANTIGEN-2 (TROP-2) ANTIBODIES” (Bionecure Therapeutics, Inc., priority 2020, published 2023):

Assays:
[1] = biological target: T1, human Trop-2 on Trop-2 positive cancer cells (human, UniProt P09758 27-323); assay: flow cytometry on MDA-MB-468 cells, MFI at 4 °C against the antibody concentration (about 400 to 10000 ng/ml); Kd (µg/ml) printed beside the legend
T1 construct: Endogenous Trop-2 of human tumour cell lines
T1 sequence (looked up): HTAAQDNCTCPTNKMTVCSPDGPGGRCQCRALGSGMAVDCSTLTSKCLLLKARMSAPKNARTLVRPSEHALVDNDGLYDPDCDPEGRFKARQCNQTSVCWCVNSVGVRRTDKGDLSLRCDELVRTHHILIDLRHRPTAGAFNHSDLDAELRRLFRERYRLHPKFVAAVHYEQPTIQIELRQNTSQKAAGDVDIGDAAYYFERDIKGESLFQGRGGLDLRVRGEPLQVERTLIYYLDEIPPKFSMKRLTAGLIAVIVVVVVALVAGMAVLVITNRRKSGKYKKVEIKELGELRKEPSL
Experimental: Internalizationi and degradation of anti-Trop-2 antibodies was measured by flow cytometry. In this study, fluorescent-conjugated secondary antibodies were used to detect the primary antibodies left on after internalization.
Next, either hRS7, or A1X4, or A1,2X4 antibody was added to cells in FACS buffer at concentrations of 400, 1000, 3000, or 10000 ng/ml, respectively, and incubated for 30 minutes at 4° C. After incubation, the cells were washed three times with FACS buffer to removed unbound antibody. The cells were then incubated at 37° C. with 5% CO₂ for antibody internalization. After 2 hours, the cells were dissociated with Trypsin and stained with fluorescent-conjugated goat anti-human IgG secondary antibodies for 30 minutes on ice in dark before being analyzed using Beckman flow cytometry system. The fluorescent intensity and cell binding percentage at each time point were analyzed by Beckman flow cytometric software. The amount of anti-Trop-2 antibodies internalized into cells at each concentration was determined using the following formula: % internalization rate = 100 × (MFI₄°C- MFI₃₇°C) / MFI₄°C

[2] = biological target: T2, human EPCAM-His (human, UniProt P16422 24-265); assay: ELISA on coated antigen, one antibody dilution (concentration not given), detected by GAH-HRP, OD450nm
T2 construct: also called hEPCAM
T2 sequence (looked up): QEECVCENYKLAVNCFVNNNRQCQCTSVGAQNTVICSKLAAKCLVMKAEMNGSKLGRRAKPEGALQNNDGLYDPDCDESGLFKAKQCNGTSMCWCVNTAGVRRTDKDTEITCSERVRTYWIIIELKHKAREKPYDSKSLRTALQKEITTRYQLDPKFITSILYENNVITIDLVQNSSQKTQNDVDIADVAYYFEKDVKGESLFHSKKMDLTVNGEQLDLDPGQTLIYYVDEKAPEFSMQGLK
Experimental: (§1) The cross-reactivity of purified IgGs to the Trop-2 antigens from different species was tested by ELISA. In this experiment, a microtiter plate was coated overnight at 4° C. with 50 µL/well of 1 µg/mL human Trop-2ECD-6His, mouse Trop-2-His, cynomolgus Trop-2-His, human EPCAM-His, and a non-related protein. The plate was washed and blocked for 1 hr at 37° C., and then washed with wash buffer. Purified anti-Trop-2 antibodies appropriately diluted in PBS were added to wells and incubated for 1 hour at 37° C. After washing, bound antibodies were detected using HRP-conjugated goat-anti-human IgG antibody. Color development and absorbance at OD450 nm were read. A non-specific human IgG1 was included as a negative control, while hRS7 was used as a positive control.

[3] = biological target: T3, mouse Trop-2-His (mouse, UniProt Q8BGV3 25-270); assay: as above
T3 sequence (looked up): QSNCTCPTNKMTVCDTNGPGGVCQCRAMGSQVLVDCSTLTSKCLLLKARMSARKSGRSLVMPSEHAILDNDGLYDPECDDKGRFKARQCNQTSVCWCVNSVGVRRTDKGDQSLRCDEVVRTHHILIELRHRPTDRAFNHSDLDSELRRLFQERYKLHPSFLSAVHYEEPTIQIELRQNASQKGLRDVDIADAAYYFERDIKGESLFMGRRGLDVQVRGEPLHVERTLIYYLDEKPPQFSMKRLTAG
Experimental: as §1

[4] = biological target: T4, human Trop-2-ECD-6His fusion protein (human, UniProt P09758 27-274); assay: BLI (Octet), antibody at 8 ug/ml, human Trop-2ECD-6His at 3.125-50 nM
T4 construct: Expressed in a human 293 cell line; also called huTrop-2; human Trop-2 antigen
T4 sequence: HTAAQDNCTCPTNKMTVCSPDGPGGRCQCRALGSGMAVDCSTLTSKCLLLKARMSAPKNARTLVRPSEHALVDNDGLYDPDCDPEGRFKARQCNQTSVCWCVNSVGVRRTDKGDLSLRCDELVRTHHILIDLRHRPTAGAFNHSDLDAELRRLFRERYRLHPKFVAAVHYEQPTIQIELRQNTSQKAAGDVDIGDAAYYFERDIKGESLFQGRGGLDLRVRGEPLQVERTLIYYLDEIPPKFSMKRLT
Experimental: The binding affinity of the purified anti-Trop-2 IgGs to human Trop-2 protein were determined by Octet system based on Bio-Layer Interferometry (BLI) technique. BLI is a layer of molecules attached to the tip of an optic fiber which creates an interference pattern at the detector, any change in the number of molecules bound causes a measured shift in the pattern. Octet system enables real-time analysis for determination of affinity and kinetics from biomolecular interactions in 96-well microplates. […] A1X4 or A1,2X4 antibody was diluted and added to the assigned wells at a final concentration 8 µg/ml. The plate was put in the Octet system and assay was started. The data was analyzed using the Octet Data Acquisition Software (fortebio data analysis 10.0) to calculate an association rate constant Kon, a dissociation rate constant Koff, and a dissociation constant Kd (Kd = Koff/Kon).

B1: humanized IgG A1,2X4 (antibody, V domains shown)
VH: QVQLQESGPGLVKPSETLSLTCTVSGFSLTSYGVNWIRQPPGKGLEWIGVMWAGGSTNYNSALMSRLTISKDTSKNQFSLKLSSVTAADTAVYYCARDENWDGAWFAYWGQGTLVTVSS
VL: DIVMTQSPDSLAVSLGERATINCKSSQSLLNSGTRKNYLAWYQQKPGQPPKLLISWASSRESGVPDRFSGSGSGTDFTLTISSLQAEDVAVYYCKQSYNLFTFGGGTKVEIKR
notes: Full-length IgG expressed in 293 cells; also called IgG HuA(1,2)/Lu(X4)
[1]
  Kd: 0.93 µg/mL
[2]
  binding result: no binding
[3]
  binding result: no binding
[4]
  Kd: 4.09 nM
  koff: 0.000844 s⁻¹
